Experimental findings from patent US20090221530A1, “Relaxase Modulators and Methods of Using Same” (priority 2005, published 2009) are described below.

The target of data set [1] is T1, F plasmid TraI N300 (Escherichia coli, UniProt P14565).
T1 construct: An amino-terminal 300 residue F plasmid TraI construct; made in house; host or cells: E. coli BL21 (DE3)/pLysS or HMS174 (DE3)/pLysS, vector pTYB2
Briefly: Fluorescence kinetic assay of oriT DNA cleavage and crossover by TraI N300. The note with it: data not shown. Format: biochemical, E. coli. How it is done: Reaction Buffer: 6.42 mM MgCl2, 20.5% glycerol, 153.9 mM NaCl, and 51.3 mM Tris-HCl pH 7.5. Streptavidin Wash Buffer (Tris buffered saline, TBS/Tween): and 150 mM NaCl, 25 mM Tris-HCl pH 7.5, and 0.05% Tween-20. Stopping Buffer: 1.2% sodium-dodecyl sulfate (SDS), and 300 mM EDTA pH 10. TE Buffer: 1 mM EDTA, and 10 mM Tris-HCl pH 7.4. Fluorescence Buffer: 80% glycerol, 200 mM Tris-HCl pH 8.0. Short-term N300 stock (for storage at −20° C.): 50% Reaction Buffer, 49.8% glycerol, 0.2% long-term protein solution (84.6 nM final N300 concentration). All 5× stocks except Probe stocks were diluted in Reaction Buffer. 5× Enzyme Stock: 8.4 mL short-term N300 stock diluted to 2.02 nM N300. 5× Inhibitor Stocks: imidodiphosphate (pNp) at 0-50 nM in Reaction Buffer. 5× Substrate Stocks: oligonucleotides b29 and PCb31eco diluted to […] each, by 3-fold serial dilutions. 5× Probe Stocks: […] (1.2-fold molar excess) oligonucleotide downF in TE Buffer. All reactions and procedures involving downF were assembled or performed in darkened conditions. Solutions and microtiter plates containing downF were kept in foil-lined containers at all times to prevent photobleaching.
Two oriT derived oligonucleotides, b29 and PCb31eco, were designed for binding and cleavage by TraI based on past studies (see Oligonucleotides section herein; FIG. 4A). The overall method is modified from those described previously for the study of TraI and R388TrwC (Byrd et al., 2002; Grandoso et al., 2000; Matson and Morton, 1991). Reactions were assembled from 16 μL of 5× Substrate Stock, 16 μL of 5× Inhibitor Stock, and 32 μL of Reaction Buffer. 80 μL reactions were initiated with 16 μL of 5× Enzyme Stock and raised to 37° C. 10 μL samples were removed at eight time points (optimized to define timecourses) and stopped in 10 μL of Stopping Buffer at room temperature. Stopped reactions were placed on a 100° C. heat block for one minute, spiked with 2 μL of 5× Probe Stock while still hot, and incubated at 37° C. for 10 minutes (see Kinetic Assay Formulations for probe handling).
Samples were diluted to […] with Streptavidin Wash Buffer and transferred to Biobind Assembly streptavidin-coated microtiter plates (Thermo Electron Corporation, Waltham, Mass., U.S.A.) and incubated at 37° C. for 45 minutes. Plates were washed with at least 5-fold excess Streptavidin Wash Buffer (in an inverted position to prevent excess biotinylated species from transferring between wells). Wells were filled with 65 μL of Fluorescence Buffer for optimum 6-FAM™ fluorescence. Plates were read in a FLUOSTAR OPTIMA™ (BMG Labtech, Offenburg, Germany) with a 490 nm excitation and 520 nm emission filters (10 nm bandpass) with the gain optimized for maximum signal. The timecourses thus collected were designated Cleavage Courses. Plates were removed and irradiated with 306 nm ultraviolet radiation for 10 minutes to cleave the PC biotin linker. They were then washed inverted with at least 5-fold excess Streptavidin Wash Buffer, filled with 65 μL of Fluorescence Buffer, and again read as above. These timecourses were designated Cleavage+Crossover Courses (FIG. 4A).
All timecourses were fitted by nonlinear regression with un-weighted least-squares methods using SIGMAPLOT™ 8.0 (SYSTAT Software, Inc., Point Richmond, Calif., U.S.A.) (also used for graph construction). Timecourses with blanked signals in arbitrary fluorescence units were scaled by curve mean in groups of at least four replicates, culled for outliers, and averaged by time point. On average, one replicate time point was culled from each group of four used. The averaged curves were fitted to a simple, three-parameter exponential decay equation (Equation 1), time versus signal, and converted into units of concentration.
where t is time in seconds, y0+a is the initial signal, b is a constant that determines the shape of the curve. […]

For data set [2], the system named is TraI H159Q H159Q (Escherichia coli F plasmid). Nature of the data set: cleavage_in_vitro. The conditions noted are these: crossover 95%; text calls this no change; 6 mM MgCl2, 37 C.
Data set [3] has as its system TraI D81N D81N (Escherichia coli F plasmid). Briefly: cleavage_in_vitro. The conditions noted are these: crossover 10%; in vivo transfer 0.0030%; printed DB1N in table; 6 mM MgCl2, 37 C.
Data set [4] concerns TraI wild-type (full length or N300) (Escherichia coli F plasmid). Nature of the data set: cleavage_in_vitro. The note with it: crossover 100%; 6 mM MgCl2, 150 mM NaCl, pH 7.5, 37 C.
Data set [5] deals with TraI K265M K265M (Escherichia coli F plasmid). Nature of the data set: cleavage_in_vitro. The conditions noted are these: in vivo transfer 59%; 6 mM MgCl2, 37 C.
The test system of data set [6] is TraI H159E H159E (Escherichia coli F plasmid). Briefly: cleavage_in_vitro. The conditions noted are these: crossover eliminated per text (nd in table); in vivo transfer 0.0010%; 6 mM MgCl2, 37 C.

T1 sequence (P14565 1-306): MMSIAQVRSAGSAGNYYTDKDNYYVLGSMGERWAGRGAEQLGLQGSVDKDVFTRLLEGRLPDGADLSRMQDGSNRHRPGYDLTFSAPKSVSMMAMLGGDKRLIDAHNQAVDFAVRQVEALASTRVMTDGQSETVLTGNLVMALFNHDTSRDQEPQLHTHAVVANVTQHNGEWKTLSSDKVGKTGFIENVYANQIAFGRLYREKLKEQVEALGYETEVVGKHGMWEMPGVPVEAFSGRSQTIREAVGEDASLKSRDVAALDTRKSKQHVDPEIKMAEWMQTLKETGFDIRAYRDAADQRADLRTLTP

Turning to `O=P(O)(O)OP(=O)(O)O` [Pyrophosphate, reference compound], in data set [1], the “effect on enzyme activity” value was “no effect”.

For oriT 22-mer, the activity (% of WT cleavage) in data set [2] stood at 55; in data set [3] it was 53; in data set [5], 100; in data set [6], 8.5. In addition, the activity in data set [4] was found to be 100 % cleavage.
